We go through 2 proteins from article PMC4445970 (Nature structural & molecular biology, 2015).

This data set concerns the molecule itself. In words: cryo-EM structure.

B1: pyocin R2 sheath protein (natural protein)
chain: MSFFHGVTVTNVDIGARTIALPASSVIGLCDVFTPGAQASAKPNVPVLLTSKKDAAAAFGIGSSIYLACEAIYNRAQAVIVAVGVETAETPEAQASAVIGGISAAGERTGLQALLDGKSRFNAQPRLLVAPGHSAQQAVATAMDGLAEKLRAIAILDGPNSTDEAAVAYAKNFGSKRLFMVDPGVQVWDSATNAARNAPASAYAAGLFAWTDAEYGFWSSPSNKEIKGVTGTSRPVEFLDGDETCRANLLNNANIATIIRDDGYRLWGNRTLSSDSKWAFVTRVRTMDLVMDAILAGHKWAVDRGITKTYVKDVTEGLRAFMRDLKNQGAVINFEVYADPDLNSASQLAQGKVYWNIRFTDVPPAENPNFRVEVTDQWLTEVLDVA
Take B1: the binding result was “binds”.

B2: pyocin R2 tube protein (natural protein)
chain: MIPQTLTNTNLFIDGVSFAGDVPSLTLPKLAVKTEQYRAGGMDAPVSIDMGLEAMEAKFSTNGARREALNFFGLADQSAFNGVFRGSFKGQKGASVPVVATLRGLLKEVDPGDWKAGEKAEFKYAVAVSYYKLEVDGREVYEIDPVNGVRAINGVDQLAGMRNDLGL
B2: the stoichiometry N (commonly the number of molecules, sites or subunits per partner or assembly) was 6.
